{
  "source": "patent US20110207677",
  "proteins": {"B1": {"name": "Recombinant and non activated JNK3 (protein)", "chain": "MSLHFLYYCSEPTLDVKIAFCQGFDKQVDVSYIAKHYNMSKSKVDNQFYSVEVGDSTFTVLKRYQNLKPIGSGAQGIVCAAYDAVLDRNVAIKKLSRPFQNQTHAKRAYRELVLMKCVNHKNIISLLNVFTPQKTLEEFQDVYLVMELMDANLCQVIQMELDHERMSYLLYQMLCGIKHLHSAGIIHRDLKPSNIVVKSDCTLKILDFGLARTAGTSFMMTPYVVTRYYRAPEVILGMGYKENVDIWSVGCIMGEMVRHKILFPGRDYIDQWNKVIEQLGTPCPEFMKKLQPTVRNYVENRPKYAGLTFPKLFPDSLFPADSEHNKLKASQARDLLSKMLVIDPAKRISVDDALQHPYINVWYDPAEVEAPPPQIYDKQLDEREHTIEEWKELIYKEVMNSEEKTKNGVVKGQPSPSGAAVNSSESLPPSSSVNDISSMSTDQTLASDTDSSLEASAGPLGCCR"}},
  "target": "T1, L-TAT-IB1(s)",
  "T1 chain": "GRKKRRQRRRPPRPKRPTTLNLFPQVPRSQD",
  "data": [
    {"protein": "B1", "values": [
      {"measurement": "JNK3 phosphorylation of Elk1 (solid phase kinase assay)", "value": "a marked exception was the absence of TAT-IB(s) inhibition of JNK3 phosphorylation of Elk1"}
    ]}
  ]
}
